Measurements from the supplement of paper PMC7877785.
± gives the uncertainty stated by the source.

Assay: self-splicing fitness, log relative to wild type (ln ratio); higher = more splicing; Tetrahymena group I intron in knt gene, E. coli kanamycin selection, DiMSum; sequences stand for … in CUCUCU…GGAGGGAAAAGUUAUCAGGCAUGCACCUGGUAGCUAGUCUUUAAACCAAUAGAUUGCAUCGGUUUAAAAGGCAAGACCGUCAAAUUGCGGGAAAGGGGUCAACAGCCGUUCAGUACCAAGUCUCAGGGGAAACUUUGAGAUGGCCUUGCAAAGGGUAUGGUAAUAAGCUGACGGACAUGGUCCUAACCACGCAGCCAAGUCCUAAGUCAACAGAUCUUCUGUUGAUAUGGAUGCAGUUCACAGACUAAAUGUCGGUCGGGGAAGAUGUAUUCUUCUCAUAAGAUAUAGUCGGACCUCUCCUUAAUGGGAGCUAGCGGAUGAAGUGAUGCAACACUGGAGCCGCUGGGAACUAAUUUGUAUGCGAAAGUAUAUUGAUUAGUUUUGGAGUACUCGUGGUCG
In short: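 DiMSum derived fitness as the error-weighted combination of fold changes across replicates, kanamycin versus no kanamycin, normalised to wild type. E. coli BL21(DE3) held the library, which randomised all eight P1ex-region intron nucleotides within the knt kanamycin-resistance gene on pET-22b(+). Six replicate transformations grew overnight at 37°C or 30°C on LB agar with or without 25 μg/mL kanamycin, also containing 100 μg/mL carbenicillin, 50 μM IPTG and 0.2% rhamnose, and pooled colonies were amplicon-sequenced on an Illumina HiSeq 2500.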

Row | Sequence | self-splicing fitness (ln) (30 °C) | self-splicing fitness (ln) (37 °C)
1 | AGCGAGCAAUAUUACGCUGA | -3.2 ± 0.18 | -2.51 ± 0.18
2 | GAUAAGCAAUAUUACGUGAC | -2.55 ± 0.32 | -0.818 ± 0.3
3 | GUAGAGCAAUAUUACGAGGC | -3.01 ± 0.19 | -2.63 ± 0.29
4 | UACUAGCAAUAUUACGCACG | -0.877 ± 0.089 | -0.992 ± 0.11
5 | CAAGAGCAAUAUUACGCUAG | – | -2.98 ± 0.35
6 | GGGAAGCAAUAUUACGUAGU | -3.38 ± 0.18 | -2.18 ± 0.17
7 | UACGAGCAAUAUUACGGCUU | -3.48 ± 0.21 | -1.84 ± 0.16
8 | AGACAGCAAUAUUACGAUGG | -3.44 ± 0.16 | -2.21 ± 0.16
9 | CGUUAGCAAUAUUACGAUUC | -3.09 ± 0.19 | -1.68 ± 0.18
10 | CACCAGCAAUAUUACGACGG | -0.253 ± 0.078 | 0.0217 ± 0.091
11 | UCCAAGCAAUAUUACGCAGU | -2.03 ± 0.082 | -0.856 ± 0.093
12 | UCUUAGCAAUAUUACGAAGC | -2.94 ± 0.21 | -2.05 ± 0.17
13 | AAGAAGCAAUAUUACGAAGG | -3.33 ± 0.38 | -2.01 ± 0.36
14 | GCUUAGCAAUAUUACGCCCG | -1.04 ± 0.15 | -0.534 ± 0.2
15 | GGUAAGCAAUAUUACGAUGG | -3.83 ± 0.39 | -2.64 ± 0.33
16 | GAGAAGCAAUAUUACGGCAA | -0.843 ± 0.084 | 0.00427 ± 0.11
17 | AAUGAGCAAUAUUACGCCGG | -3.52 ± 0.47 | -2.35 ± 0.36

Row | Sequence | self-splicing fitness (ln) (30 °C) | self-splicing fitness (ln) (37 °C)
18 | CUCCAGCAAUAUUACGUACG | -1.82 ± 0.11 | -0.463 ± 0.12
19 | CCCCAGCAAUAUUACGUGCU | -3.34 ± 0.14 | -2.47 ± 0.16
20 | UGCGAGCAAUAUUACGAUGU | -3.53 ± 0.13 | -2.97 ± 0.18
21 | GAAUAGCAAUAUUACGGACU | -0.83 ± 0.07 | -0.397 ± 0.087
22 | CGGUAGCAAUAUUACGCACG | -2.85 ± 0.21 | -1.59 ± 0.26
23 | UUACAGCAAUAUUACGGACG | -0.683 ± 0.079 | -0.00562 ± 0.096
24 | GGCCAGCAAUAUUACGAGGG | -3.58 ± 0.16 | -1.75 ± 0.17
25 | ACGAAGCAAUAUUACGUCCA | -0.408 ± 0.12 | -0.457 ± 0.13
26 | CGGGAGCAAUAUUACGAGUA | -2.74 ± 0.42 | –
27 | AAUAAGCAAUAUUACGUGGG | -3 ± 0.13 | -2.75 ± 0.17
28 | ACUUAGCAAUAUUACGAUAA | -2.81 ± 0.27 | -0.457 ± 0.3
29 | AGAUAGCAAUAUUACGAGCA | -0.984 ± 0.1 | -0.95 ± 0.11
30 | UGUCAGCAAUAUUACGUCAU | -1.79 ± 0.1 | -1.38 ± 0.14
31 | AAUUAGCAAUAUUACGAUCG | -0.473 ± 0.13 | 0.0147 ± 0.16
32 | UAGUAGCAAUAUUACGCGUC | -3.22 ± 0.38 | -1.88 ± 0.36
33 | ACUAAGCAAUAUUACGCUGA | -2.16 ± 0.17 | -1.31 ± 0.15
34 | UCGAAGCAAUAUUACGACAA | -1.59 ± 0.14 | -1.07 ± 0.15
